From the supplement of paper PMC10065799, “High-throughput profiling of sequence recognition by tyrosine kinases and SH2 domains using bacterial peptide display” (eLife, 2023)

How the values were obtained:
Fyn = Fyn (UniProt P06241); assay: phosphorylation enrichment, bacterial display (enrichment ratio); higher = better substrate or ligand; peptides without Tyr show the background
EPHB1 = EPHB1 (UniProt P54762); assay: as above
FGFR1 = FGFR1 (UniProt P11362); assay: as above
Jak2 = Jak2 (UniProt O60674); assay: as above
Fes = Fes (UniProt P07332); assay: as above
Fer (mouse) = assay: as above
AncSZ = assay: as above
c-Abl (mouse) = assay: as above
c-Src = assay: as above
FGFR3 = FGFR3 (UniProt P22607); assay: as above
Hck = Hck (UniProt P08631); assay: as above
MERTK = MERTK (UniProt Q12866); assay: as above
EPHB2 = EPHB2 (UniProt P29323); assay: as above
c-Src SH2 = assay: SH2 binding enrichment of the phosphorylated peptide, bacterial display (enrichment ratio); higher = better substrate or ligand; peptides without Tyr show the background
SHP2-C SH2 = assay: as above
Grb2 SH2 = Grb2 SH2 (UniProt P62993); assay: as above
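For SH2 binding enrichment of the phosphorylated peptide, bacterial display in this document: peptide library displayed on the E. coli surface as eCPX fusions, selected cells deep-sequenced, score is each peptide's frequency after selection divided by its frequency in the input.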
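For phosphorylation enrichment, bacterial display in this document: 11-residue human phosphosite peptides and single-mutation variants displayed on the E. coli surface, counted by deep sequencing, each peptide's frequency after selection divided by its frequency in the unselected input library; frequency after pTyr selection over input frequency; kinase dosed for 20-30% of maximal phosphorylation in three min.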

EPHB2, sequence (P29323 whole entry, looked up): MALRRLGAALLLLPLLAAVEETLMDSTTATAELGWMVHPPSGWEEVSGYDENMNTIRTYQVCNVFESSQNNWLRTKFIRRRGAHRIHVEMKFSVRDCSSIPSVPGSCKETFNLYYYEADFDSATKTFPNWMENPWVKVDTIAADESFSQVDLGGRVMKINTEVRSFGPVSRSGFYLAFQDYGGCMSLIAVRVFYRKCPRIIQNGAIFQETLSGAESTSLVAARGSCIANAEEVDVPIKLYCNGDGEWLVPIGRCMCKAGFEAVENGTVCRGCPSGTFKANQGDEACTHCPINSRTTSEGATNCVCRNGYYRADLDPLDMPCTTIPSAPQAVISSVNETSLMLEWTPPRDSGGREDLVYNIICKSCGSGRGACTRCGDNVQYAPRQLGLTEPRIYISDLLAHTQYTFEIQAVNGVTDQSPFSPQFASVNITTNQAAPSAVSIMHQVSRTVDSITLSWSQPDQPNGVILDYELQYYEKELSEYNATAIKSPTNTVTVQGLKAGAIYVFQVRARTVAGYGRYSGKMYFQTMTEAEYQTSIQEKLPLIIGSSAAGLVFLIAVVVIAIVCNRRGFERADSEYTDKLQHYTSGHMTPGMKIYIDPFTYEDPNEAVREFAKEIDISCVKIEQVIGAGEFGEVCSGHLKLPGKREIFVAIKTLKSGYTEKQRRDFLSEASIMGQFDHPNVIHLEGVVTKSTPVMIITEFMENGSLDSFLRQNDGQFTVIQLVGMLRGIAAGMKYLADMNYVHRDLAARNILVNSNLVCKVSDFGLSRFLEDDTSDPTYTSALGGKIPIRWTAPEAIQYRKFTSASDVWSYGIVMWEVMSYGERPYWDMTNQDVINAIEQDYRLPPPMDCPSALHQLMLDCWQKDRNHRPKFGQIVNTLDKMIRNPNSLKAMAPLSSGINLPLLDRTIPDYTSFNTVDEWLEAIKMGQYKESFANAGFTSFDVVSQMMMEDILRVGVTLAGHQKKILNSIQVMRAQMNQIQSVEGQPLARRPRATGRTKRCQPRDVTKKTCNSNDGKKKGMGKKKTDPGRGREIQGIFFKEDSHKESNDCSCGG
FGFR3, sequence (P22607 whole entry, looked up): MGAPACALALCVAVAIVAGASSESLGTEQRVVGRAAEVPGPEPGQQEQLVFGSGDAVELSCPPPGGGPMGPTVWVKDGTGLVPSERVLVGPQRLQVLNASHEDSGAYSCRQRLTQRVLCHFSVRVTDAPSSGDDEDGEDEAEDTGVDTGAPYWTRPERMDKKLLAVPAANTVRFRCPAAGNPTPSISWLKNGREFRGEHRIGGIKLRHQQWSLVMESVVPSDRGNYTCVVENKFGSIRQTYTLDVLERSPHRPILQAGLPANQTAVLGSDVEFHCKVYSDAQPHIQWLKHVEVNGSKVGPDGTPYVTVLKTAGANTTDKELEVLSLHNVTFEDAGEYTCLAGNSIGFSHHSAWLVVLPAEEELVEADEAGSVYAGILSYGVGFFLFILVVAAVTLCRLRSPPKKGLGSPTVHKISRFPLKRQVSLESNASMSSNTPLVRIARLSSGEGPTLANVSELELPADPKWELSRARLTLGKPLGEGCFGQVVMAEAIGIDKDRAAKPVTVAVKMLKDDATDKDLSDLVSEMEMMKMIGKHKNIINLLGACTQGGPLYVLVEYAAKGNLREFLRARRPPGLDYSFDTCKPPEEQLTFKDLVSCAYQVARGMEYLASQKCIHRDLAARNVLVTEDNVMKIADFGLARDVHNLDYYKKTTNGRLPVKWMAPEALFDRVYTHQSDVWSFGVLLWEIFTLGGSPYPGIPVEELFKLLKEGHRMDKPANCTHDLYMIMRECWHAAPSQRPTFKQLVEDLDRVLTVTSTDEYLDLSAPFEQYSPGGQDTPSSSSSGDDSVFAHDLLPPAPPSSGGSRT
Fyn, sequence (P06241 whole entry, looked up): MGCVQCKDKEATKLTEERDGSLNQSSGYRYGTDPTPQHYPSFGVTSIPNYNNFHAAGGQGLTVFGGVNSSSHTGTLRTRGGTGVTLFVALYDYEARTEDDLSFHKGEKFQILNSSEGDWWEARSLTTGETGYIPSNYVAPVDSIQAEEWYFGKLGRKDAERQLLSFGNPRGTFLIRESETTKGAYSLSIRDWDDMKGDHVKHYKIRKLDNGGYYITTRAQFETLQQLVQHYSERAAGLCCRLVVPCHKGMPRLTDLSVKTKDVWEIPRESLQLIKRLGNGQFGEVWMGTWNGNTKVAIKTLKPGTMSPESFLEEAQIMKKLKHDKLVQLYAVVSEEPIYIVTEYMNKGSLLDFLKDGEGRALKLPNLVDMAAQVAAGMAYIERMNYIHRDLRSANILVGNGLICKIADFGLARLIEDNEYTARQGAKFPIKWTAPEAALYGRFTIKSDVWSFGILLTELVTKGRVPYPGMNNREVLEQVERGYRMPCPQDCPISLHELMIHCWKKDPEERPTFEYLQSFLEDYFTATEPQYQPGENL
Jak2, sequence (O60674 whole entry, looked up): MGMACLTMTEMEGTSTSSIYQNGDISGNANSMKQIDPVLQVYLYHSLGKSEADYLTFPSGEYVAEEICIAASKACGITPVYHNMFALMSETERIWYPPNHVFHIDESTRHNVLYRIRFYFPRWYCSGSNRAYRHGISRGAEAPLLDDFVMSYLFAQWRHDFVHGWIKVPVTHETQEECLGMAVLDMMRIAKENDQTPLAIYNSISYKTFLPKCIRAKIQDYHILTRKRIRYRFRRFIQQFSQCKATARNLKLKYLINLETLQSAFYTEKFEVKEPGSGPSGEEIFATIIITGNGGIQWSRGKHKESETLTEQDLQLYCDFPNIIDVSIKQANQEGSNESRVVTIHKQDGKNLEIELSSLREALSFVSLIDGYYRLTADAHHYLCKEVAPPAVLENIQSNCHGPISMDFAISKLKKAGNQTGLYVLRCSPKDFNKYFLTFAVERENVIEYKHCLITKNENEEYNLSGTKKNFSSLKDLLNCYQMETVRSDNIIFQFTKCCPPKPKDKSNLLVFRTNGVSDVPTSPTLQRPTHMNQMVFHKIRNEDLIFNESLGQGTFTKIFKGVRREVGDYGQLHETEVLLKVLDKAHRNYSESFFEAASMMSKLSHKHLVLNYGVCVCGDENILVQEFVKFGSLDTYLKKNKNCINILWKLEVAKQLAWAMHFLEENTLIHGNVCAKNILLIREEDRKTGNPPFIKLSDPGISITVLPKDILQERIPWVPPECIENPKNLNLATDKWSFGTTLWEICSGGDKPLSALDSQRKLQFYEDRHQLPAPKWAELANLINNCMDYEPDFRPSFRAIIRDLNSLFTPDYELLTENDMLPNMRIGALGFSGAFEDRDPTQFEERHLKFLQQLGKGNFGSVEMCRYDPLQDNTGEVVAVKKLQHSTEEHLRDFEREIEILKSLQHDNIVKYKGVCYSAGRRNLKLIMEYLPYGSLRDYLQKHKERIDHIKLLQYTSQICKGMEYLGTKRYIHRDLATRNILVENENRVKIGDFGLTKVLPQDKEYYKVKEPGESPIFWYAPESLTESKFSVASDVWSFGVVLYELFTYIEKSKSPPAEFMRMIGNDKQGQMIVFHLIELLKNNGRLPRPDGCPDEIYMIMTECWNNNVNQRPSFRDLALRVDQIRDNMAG
FGFR1, sequence (P11362 whole entry, looked up): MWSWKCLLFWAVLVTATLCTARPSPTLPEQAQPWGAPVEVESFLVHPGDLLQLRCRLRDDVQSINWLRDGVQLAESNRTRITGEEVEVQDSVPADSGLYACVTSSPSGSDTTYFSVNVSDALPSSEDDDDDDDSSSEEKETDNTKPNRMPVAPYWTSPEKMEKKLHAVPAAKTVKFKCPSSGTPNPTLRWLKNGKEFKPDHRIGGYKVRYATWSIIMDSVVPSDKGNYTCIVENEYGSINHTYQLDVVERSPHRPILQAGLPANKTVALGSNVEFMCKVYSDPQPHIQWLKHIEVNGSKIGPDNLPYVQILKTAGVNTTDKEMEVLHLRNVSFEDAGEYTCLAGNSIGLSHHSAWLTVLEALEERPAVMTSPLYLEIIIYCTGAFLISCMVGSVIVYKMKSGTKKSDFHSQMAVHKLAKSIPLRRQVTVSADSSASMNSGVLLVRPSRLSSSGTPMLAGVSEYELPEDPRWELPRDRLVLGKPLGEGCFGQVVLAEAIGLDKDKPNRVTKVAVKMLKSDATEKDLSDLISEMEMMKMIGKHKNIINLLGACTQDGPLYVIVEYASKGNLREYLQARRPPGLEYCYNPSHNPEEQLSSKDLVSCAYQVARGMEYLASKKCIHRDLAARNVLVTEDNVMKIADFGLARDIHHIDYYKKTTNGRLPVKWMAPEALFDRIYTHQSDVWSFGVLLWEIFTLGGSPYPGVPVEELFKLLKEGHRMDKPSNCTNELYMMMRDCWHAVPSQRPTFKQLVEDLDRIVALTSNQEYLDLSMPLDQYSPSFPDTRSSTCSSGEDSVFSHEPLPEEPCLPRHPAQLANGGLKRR
Hck, sequence (P08631 whole entry, looked up): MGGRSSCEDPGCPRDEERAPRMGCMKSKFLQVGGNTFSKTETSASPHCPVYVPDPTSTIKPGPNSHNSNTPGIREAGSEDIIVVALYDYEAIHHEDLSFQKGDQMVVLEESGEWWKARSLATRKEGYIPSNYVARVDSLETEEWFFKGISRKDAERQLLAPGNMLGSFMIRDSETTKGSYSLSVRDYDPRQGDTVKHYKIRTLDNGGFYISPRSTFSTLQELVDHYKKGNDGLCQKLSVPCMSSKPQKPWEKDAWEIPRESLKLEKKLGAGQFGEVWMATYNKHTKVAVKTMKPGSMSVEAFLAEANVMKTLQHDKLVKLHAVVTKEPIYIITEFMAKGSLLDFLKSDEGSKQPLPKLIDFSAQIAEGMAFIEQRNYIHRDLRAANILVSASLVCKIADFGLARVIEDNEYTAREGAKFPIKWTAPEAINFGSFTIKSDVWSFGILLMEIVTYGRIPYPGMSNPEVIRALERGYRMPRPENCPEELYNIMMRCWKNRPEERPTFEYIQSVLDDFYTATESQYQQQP

Row | SH2 binding enrichment (c-Src SH2) | SH2 binding enrichment (SHP2-C SH2) | SH2 binding enrichment (Grb2 SH2) | Sequence | phosphorylation enrichment (Fyn) | phosphorylation enrichment (EPHB1) | phosphorylation enrichment (FGFR1) | phosphorylation enrichment (Jak2) | phosphorylation enrichment (Fes) | phosphorylation enrichment (Fer (mouse)) | phosphorylation enrichment (AncSZ) | phosphorylation enrichment (c-Abl (mouse)) | phosphorylation enrichment (c-Src) | phosphorylation enrichment (FGFR3) | phosphorylation enrichment (Hck) | phosphorylation enrichment (MERTK) | phosphorylation enrichment (EPHB2)
1 | 0.739 | 0.752 | 0.896 | IIWDSYTTNEM [GNB4_Y85_K89E] | 0.747 | 0.787 | 0.678 | 1.39 | 1.43 | 0.705 | 1.48 | 0.829 | 0.57 | 0.903 | 0.54 | 0.411 | 0.795
2 | 6.38 | 2.87 | 1.3 | CTAIHYNYMCN [TP53_Y234_T231A] | 0.386 | 0.628 | 0.479 | 0.569 | 0.727 | 0.401 | 0.707 | 0.48 | 0.441 | 0.581 | 0.429 | 0.398 | 0.506
3 | 1.05 | 1.17 | 1 | RHPEVYHHLGV [NVL_Y290] | 0.419 | 2.11 | 1.08 | 0.823 | 0.787 | 0.423 | 0.778 | 0.701 | 0.632 | 0.602 | 1.09 | 0.537 | 0.419
4 | 0.795 | 0.675 | 0.967 | SVVVPYEPPEA [TP53_Y220_V225A] | 0.483 | 0.61 | 0.496 | 1.1 | 1.19 | 0.593 | 1.28 | 0.859 | 0.574 | 0.738 | 0.54 | 0.54 | 0.536
5 | 2.07 | 0.994 | 0.927 | CTTIPYNFMCN [TP53_Y234_H233P_YF] | 0.48 | 0.449 | 0.515 | 0.718 | 0.926 | 0.424 | 0.945 | 0.528 | 0.753 | 0.726 | 0.561 | 0.482 | 0.514
6 | 0.522 | 1.23 | 0.99 | TRDVNYGWIIH [MT-CYB_Y75_R80H] | 0.508 | 0.938 | 0.703 | 1.15 | 1.11 | 4.76 | 1.06 | 0.908 | 0.524 | 0.736 | 0.523 | 1.98 | 1.14
7 | 0.536 | 0.89 | 0.772 | TNFRFYLRSLE [MTM1_Y71_L70F_YF] | 0.397 | 0.66 | 0.548 | 1.57 | 1.64 | 0.558 | 1.3 | 0.931 | 0.455 | 0.964 | 0.633 | 0.381 | 0.611
8 | 0.528 | 0.746 | 0.74 | TGQEDYDRLRP [RAC1_Y64_A59T] | 0.756 | 0.781 | 0.754 | 1.02 | 1.17 | 0.563 | 1.34 | 0.778 | 0.603 | 0.732 | 0.836 | 0.498 | 0.94
9 | 0.426 | 0.619 | 1.01 | KMLEKYKEQLN [TLK2_Y259_R262Q] | 0.503 | 0.585 | 0.604 | 0.507 | 0.864 | 0.539 | 0.721 | 0.51 | 0.336 | 0.56 | 0.53 | 0.393 | 0.598
10 | 0.754 | 0.765 | 0.67 | NNVEQYQAMVT [TPR_Y965_S960N] | 0.542 | 0.599 | 0.581 | 0.779 | 1.14 | 0.528 | 1.08 | 0.683 | 0.485 | 0.721 | 0.551 | 0.523 | 0.634
11 | 0.691 | 0.942 | 1.15 | LQRCKNSHMEP [TEX45_Y434_Y434N] | 0.956 | 0.939 | 0.958 | 0.9 | 0.865 | 0.782 | 0.599 | 0.641 | 0.747 | 0.729 | 0.741 | 0.809 | 0.848
12 | 0.596 | 0.594 | 0.748 | PESIMYPKFTT [NTRK3_Y744_R745P] | 0.707 | 0.513 | 0.656 | 0.717 | 1.09 | 0.549 | 0.66 | 0.595 | 0.397 | 0.794 | 0.739 | 0.579 | 0.586
13 | 0.675 | 0.744 | 0.883 | NNRVFYDNSDR [RS1_Y177_G178D] | 0.45 | 0.412 | 0.435 | 0.499 | 0.628 | 0.471 | 0.603 | 0.453 | 0.409 | 0.471 | 0.4 | 0.42 | 0.442
14 | 0.851 | 1 | 1.16 | PKSLFYLLLKP [TRPC6_Y775_L780P] | 0.439 | 0.759 | 0.708 | 1.73 | 2.1 | 0.568 | 1.64 | 1.31 | 0.684 | 1.12 | 0.513 | 0.963 | 0.569
15 | 0.478 | 0.758 | 0.971 | WAKPEYTGGFK | 0.411 | 0.438 | 0.48 | 0.574 | 0.732 | 0.332 | 0.544 | 0.743 | 0.417 | 0.462 | 0.364 | 0.397 | 0.468
16 | 0.966 | 1.17 | 1.25 | KVALPYKPYFY [POLE_Y100] | 0.465 | 0.589 | 0.47 | 0.962 | 0.963 | 0.346 | 0.778 | 0.681 | 0.858 | 0.658 | 0.485 | 0.556 | 0.438
17 | 0.931 | 0.661 | 0.874 | CTTIDYNFMCN [TP53_Y234_H233D_YF] | 0.527 | 0.474 | 0.882 | 1.21 | 1.27 | 0.597 | 1.27 | 1.04 | 0.874 | 0.911 | 0.528 | 0.529 | 0.651
18 | 0.686 | 0.553 | 1.06 | LLNAIYLSAKW [SERPING1_Y294] | 1.12 | 1.3 | 0.464 | 1.41 | 1.66 | 0.692 | 1.61 | 1.22 | 1.04 | 2.29 | 2.18 | 0.503 | 0.794

The next lines start with the sequence.

Row | Sequence | SH2 binding enrichment (c-Src SH2) | SH2 binding enrichment (SHP2-C SH2) | SH2 binding enrichment (Grb2 SH2) | phosphorylation enrichment (Fyn) | phosphorylation enrichment (EPHB1) | phosphorylation enrichment (FGFR1) | phosphorylation enrichment (Jak2) | phosphorylation enrichment (Fes) | phosphorylation enrichment (Fer (mouse)) | phosphorylation enrichment (AncSZ) | phosphorylation enrichment (c-Abl (mouse)) | phosphorylation enrichment (c-Src) | phosphorylation enrichment (FGFR3) | phosphorylation enrichment (Hck) | phosphorylation enrichment (MERTK) | phosphorylation enrichment (EPHB2)
19 | GVMLLYFGRFN [ADGRD1_Y85_T82M_YF] | 0.746 | 1.25 | 0.956 | 0.441 | 0.529 | 0.53 | 1.15 | 1.26 | 0.508 | 1.4 | 0.65 | 0.343 | 0.705 | 0.531 | 0.393 | 0.528
20 | VYSTDYYRVGG [NTRK2_Y706] | 0.719 | 0.687 | 0.92 | 5.13 | 8.68 | 15.3 | 10 | 0.902 | 1.22 | 2.94 | 1.49 | 4.67 | 11.8 | 4.61 | 11 | 7.13
21 | ESKAGYRAPRS [CLDN7_Y195_V197A] | 0.542 | 0.74 | 1.04 | 0.415 | 0.35 | 0.425 | 0.593 | 0.519 | 0.339 | 0.536 | 0.402 | 0.349 | 0.483 | 0.404 | 0.34 | 0.415
22 | LDLSYYTTSSS [EMD_Y182_P183T] | 1.49 | 0.64 | 0.73 | 0.967 | 0.978 | 1.07 | 1.93 | 1.36 | 0.635 | 1.84 | 0.982 | 0.908 | 1.21 | 1.01 | 0.731 | 0.863
23 | LKGQVYILGQE [ASS1_Y359_R363Q] | 0.539 | 0.761 | 1.17 | 0.816 | 1.09 | 0.939 | 1.98 | 2.47 | 0.802 | 1.84 | 1.77 | 1.28 | 1.26 | 1.07 | 0.843 | 0.848
24 | LFSNAYLSDLA [ALDH1A1_Y119_N121S_YF] | 0.36 | 0.601 | 0.783 | 1.23 | 2.12 | 2.39 | 2.06 | 2.92 | 1.31 | 2.21 | 2.14 | 2.79 | 1.42 | 0.974 | 1.81 | 1.15
25 | GGGFGYQKTRK [DDX18_Y643_K647R] | 0.536 | 0.461 | 0.976 | 0.401 | 0.629 | 0.422 | 0.57 | 0.613 | 0.422 | 0.597 | 0.719 | 0.492 | 0.46 | 0.393 | 0.514 | 0.302
26 | LQRVQYDLQKA [DSP_Y1512] | 0.565 | 0.831 | 0.948 | 0.582 | 1.3 | 0.897 | 0.642 | 0.788 | 0.58 | 0.872 | 0.496 | 0.409 | 0.816 | 0.397 | 0.646 | 0.907
27 | FKDFFYCWNTS [AICDA_Y146_F151S_YF] | 0.59 | 0.689 | 0.815 | 0.458 | 0.942 | 0.496 | 1.42 | 1.5 | 0.768 | 1.32 | 1.08 | 0.589 | 0.939 | 0.589 | 0.836 | 0.61
28 | SPLEVYVDKSQ [FLNA_Y373_F370L] | 0.477 | 0.585 | 0.859 | 0.469 | 0.653 | 0.631 | 1.14 | 1.25 | 0.521 | 1.2 | 0.723 | 0.508 | 0.74 | 0.523 | 0.47 | 0.716
29 | HYMELYDLNRD [BBS2_Y648_R643H] | 2.44 | 1.33 | 1.07 | 2.58 | 2.98 | 3.57 | 1.22 | 1.22 | 1.28 | 1.5 | 0.862 | 6.4 | 2.94 | 2.89 | 4.26 | 1.45
30 | LENQTYFRSFE [AKAP9_Y2482_K2484R] | 0.624 | 0.546 | 0.803 | 0.851 | 0.487 | 0.571 | 1.09 | 1.14 | 0.632 | 0.881 | 0.843 | 0.55 | 1.02 | 0.678 | 0.537 | 0.811
31 | GAPATYKGDAR [CACNA1A_Y1013_E1014K] | 0.483 | 1.17 | 1.09 | 0.366 | 0.332 | 0.419 | 0.489 | 0.52 | 0.319 | 0.432 | 0.568 | 0.401 | 0.452 | 0.384 | 0.384 | 0.422
32 | HFPFQYHRQLY [F12_Y53] | 1.28 | 2.15 | 1.27 | 0.59 | 0.583 | 0.449 | 0.723 | 1.28 | 0.725 | 1.03 | 0.508 | 0.471 | 0.865 | 0.656 | 0.566 | 0.572
33 | ASFGPYTRVQS [FOXL2_Y258_YF] | 1.43 | 4.01 | 0.655 | 0.515 | 0.524 | 0.527 | 0.669 | 0.606 | 0.409 | 0.61 | 0.449 | 0.481 | 0.494 | 0.483 | 0.498 | 0.381
